Source: patent publication US20210364527A1 (QUANTUM SI, published 2021)
Where two headings read alike, the source gives them in different places.

T1: VA peptide VAKLDEESILKQK (XAKLDEESILKQK, X = V)
T1 construct: Immobilized on the biolayer interferometry sensor
T1 peptide: VAKLDEESILKQK

T2: IA peptide IAKLDEESILKQK (XAKLDEESILKQK, X = I)
T2 construct: Immobilized on the biolayer interferometry sensor
T2 peptide: IAKLDEESILKQK

T3: F peptide FAKLDEESILKQK (XAKLDEESILKQK, X = F)
T3 construct: Immobilized on the biolayer interferometry sensor
T3 peptide: FAKLDEESILKQK

T4: LA peptide LAKLDEESILKQK (XAKLDEESILKQK, X = L)
T4 construct: Immobilized on the biolayer interferometry sensor
T4 peptide: LAKLDEESILKQK

T5: W peptide WAKLDEESILKQK (XAKLDEESILKQK, X = W)
T5 construct: Immobilized on the biolayer interferometry sensor
T5 peptide: WAKLDEESILKQK


Assays:
Test in all cases: BLI heatmap
[1] = target: T1, VA peptide VAKLDEESILKQK …
[2] = target: T2, IA peptide IAKLDEESILKQK …
[3] = target: T3, F peptide FAKLDEESILKQK (XAKLDEESILKQK, …)
[4] = target: T4, LA peptide LAKLDEESILKQK …
[5] = target: T2, IA peptide IAKLDEESILKQK …
[6] = target: T3, F peptide FAKLDEESILKQK (XAKLDEESILKQK, …)
[7] = target: T5, W peptide WAKLDEESILKQK (XAKLDEESILKQK, …)
[8] = target: T4, LA peptide LAKLDEESILKQK …

Binder	binding result [1]	binding result [2]	binding result [3]	binding result [4]	binding result [5]	binding result [6]	binding result [7]	binding result [8]
PS418 (other) MSDHNIDHDTSVAVHLDVVVREPPMYRVVLLNDDFTPMEFVVELLMHFFRKTAEQATQIMLNIHHEGVGVCGTYPREIAETKVAQVHQHARTNGHPLKCRMEPS	no binding	no binding	binds	–	–	–	–	–
PS570 (other) MTGAGASQPSILEETEVRPRLSDGPWKVVLWDDDFHTYEYVIEMLMDVCQMPWEKAFQHAVEVDTRKKTIVFSGELEHAEFVHERILNYGPDPRMGSSKGSMTATLEQ	–	–	–	binds	binds	no binding	–	–
PS412 (other) MATKREGSTLLEPTAAKVKPPPLYKVLLLNDDYTPMEFVVLVLKKFFGIDQERATQIMLKVHTEGVGVCGVYPRDIAHTKVEQVVDFARQHQHPLQCTMEES	no binding	no binding	binds	–	–	–	–	–
PS394 (other) MAERRDTGDDEGTGLGIATKTRSKTKKPTPYRVLMLNDDYTPMEFVVLCLQRFFRMNMEEATRVMLHVHQKGVGVCGVFSYEVAETKVGQVIDFARANQHPLQCTLEKA	no binding	no binding	binds	–	–	–	–	–
PS549 (other) MSESITTLPKKSRRLKEEEEQKTKRQPPYNVILLNDDDHTFEYVIFMLQKLFGHPPERGMQMAKEVHTTGRVIVMTTALELAELKRDQIHAFGPDPLIDRCKGSMSATIEPAPI	–	–	–	binds	binds	no binding	–	–
PS422 (other) MTQIKPQTIPDTDVISQTQSDWQMPDLYAVIMHNDDYTTMDFVVFLLNAVFDKPIEQAYQLMMQIHQTGRAVVAILPYEIAEMKVDEATSLAEQEQFPLFISIEQA	no binding	no binding	binds	–	–	–	–	–
PS556 (other) MGDSNTSVAEPGEVTVVTTKPAPKKAKPKRQPKYHVVLWNDDDHTYEYVILMMHELFGHPVEKGFQIAKTVDADGRAICLTTTKEHAELKRDQIHAYGKDELIARCRGSMSSTIEPEC	–	–	–	binds	binds	no binding	–	–
PS546 (other) MSDTITLPGRPEVERDERTRRQPPYNVILHNDDDHTFEYVIVMLNQLFGYPPEKGYEMAKEVHLNGRVIVLTTSKEHAELKRDQIHAFGPDPFSSKDCKGSMSASIEPAY	–	–	–	binds	binds	no binding	–	–
PS565 (other) MSEFDHEHSGDTSVADPIVTTKTAPKPQKHAENETETRRQPPYNVIILNDEEHTFDYVIELLCKVFRHSLATAQELTWRIHLTGRAVVLTTHKELAELKRDQVLAYGPDPRMSVSKGPLDCFIEPAPGG	–	–	–	binds	binds	binds	–	–
PS548 (other) MSDTITLPEEKTDVRTKRQPPYHVILLNDDDHTYQYVIYMLQTLFGHPPETGFKMAQEVDKTGRVIVDTTSLERAELKRDQIHAFGPDPYIERCKGSMSAMIEPSE	–	–	–	binds	binds	no binding	–	–
PS414 (other) MQAAGNEPPDPQNPGDVGNGGDGGNQDGSNTGVVVKTRTRTRKPAMYKVLMLNDDYTPMEFVVHVLERFFQKNREEATRIMLHVHRRGVGVCGVYTYEVAETKVTQVMDLARQNQHPLQCTIEKE	no binding	no binding	binds	–	–	–	binds	–
PS395 (other) MTVSQSKTQGAPAAQSATELEYEGLWRVVVLNDPVNLMSYVVLVFKKVFGFDETTARKHMLEVHEQGRSVVWSGMREKAEAYAFTLQQWHLTTVLEQDEVR	no binding	no binding	binds	–	–	–	–	–
PS408 (other) MTDPPSKGREDVDLATRTKPKTQRPPLYKVLLLNDDFTPMEFVVHILERLFGMTHAQAIEIMLTVHRKGVAVVGVFSHEIAETKVAQVMELARRQQHPLQCTMEKE	no binding	no binding	binds	–	–	–	–	–
PS393 (other) MSDEDGEDGDENAVGIATRTRTRTKKPTPYRVLLLNDDYTPMEFVVLVLQRFFRMSIEDATRVMLQVHQKGVGVCGVFTYEVAETKVSQVIDFARQNQHPLQCTLEKA	no binding	no binding	binds	–	–	–	–	–
PS575 (other) MASTQTPDLNEITEESTKSTGGPWRVVLWDDNEHTYEYVIEMLMEICTMTVEKAFLHAVQVDQEKRTVVFSGEFEHAEHVQERILTYGADPRMSNSKGSMSATLEK	–	–	–	binds	binds	no binding	–	–
PS419 (other) MEKEQSLCKEKTHVELSEPKHYKVVFHNDDFTTMDFVVKVLQLVFFKSQLQAEDLTMKIHLEGSATAGIYSYDIAQSKAQKTTQMAREEGFPLRLTVEPEDN	no binding	no binding	binds	–	–	–	–	–
PS434 (other) MSRLPWKQEAKFAATVIIDFPDATLEAPTIEKKEATEQQIEMPWNVVVHNDPVNLMSYVTMVFQRVFGYPRERAEKHMLEVHHSGRSILWSGLRERAELYVQQLHGYLLLATIEKTV	no binding	no binding	binds	–	–	–	–	–
PS560 (other) MTETITTPAERTQTQAEPRSDRAWLWNVVLLDDDEHTYEYVIRMLHTLFGMPVERAFRLAEEVDARGRAVVLTTHKEHAELKRDQVHAFGKDALIASCAGSMSAVLEPAECGSDDED	–	–	–	binds	binds	no binding	–	–
PS578 (other) MSGTVVESKPRNSTQLAPRWKVIVHDDPVTTFDFVLGVLRRVFAKPPGEARRITREAHDTGSALVDVLALEQAEFRRDQAHSLARAEGFPLTLTLEPAD	–	–	–	binds	–	binds	–	–
PS392 (other) MSVEIIEKRSTVRKLAPRYRVLLHNDDFNPMEYVVQTLMATVPSLTQPQAVNVMMEAHTNGMGLVIVCALEHAEFYAETLNNHGLGSSIEPDD	no binding	no binding	binds	–	–	–	–	no binding
PS550 (other) MPTFTEPEVVNDTRILPPYHVILLNDDDHTYEYVIHMLQTLFGHPQERGFQLAVEVDKKGKAIVFTTSKEHAEFKRDQIHAFGADPLSSKNCKGSMSAVIEPSF	–	–	–	binds	–	–	–	–
PS409 (other) MPARLTDIEGEPNTDPVEDVLLADPELKKPQMYAVVMYNDDYTPMEFVVDVLQNHFKHTLDSAISIMLAIHQQGKGIAGIYPKDIAETKAQTVNRKARQAGYPLLSQIEPQG	no binding	no binding	binds	–	–	–	–	–
PS407 (other) MPSNKRQMCLSDIKNSFNESGIVDWHISPRLANEPSEEGDSDLAVQTVPPELKRPPLYAVVLLNDDYTPMEFVIEILQQYFAMNLDQATQVMLTVHYEGKGVAGVYPRDIAETKANQVNNYARSQGHPLLCQIEPKD	no binding	no binding	binds	–	–	–	–	–
PS425 (other) MTHYFSNILRDQESPKINPKELEQIDVLEEKEHQIILYNDDVNTFEHVIDCLVKICEHNYLQAEQCAYIVHHSGKCSVKTGSLDELVPKCNALLEEGLSAEVV	no binding	no binding	binds	–	–	–	–	–
PS566 (other) MSSPSSLDDVQVSTSRAKPANETRTRKQPPYAVIVENDDHHTFLYVIEALMKVCGHAPEKGFVLAQQIHTQGKAMVWSGTLELAELKRDQLRGFGPDNYAPRPVTFPLGVTIEPLP	–	–	–	binds	binds	binds	–	–
PS433 (other) MMSSLKECSIQALPSLDEKTKTEEDLSVPWKVIVLNDPVNLMSYVVMVFRKVFGYNENKATKHMMEVHQLGKSVLWTGQREEAECYAYQLQRWRLQTILEKDD	no binding	no binding	binds	–	–	–	–	–
